Measurements as given in patent US20210371490A1 (MILTENYI BIOTEC B V, published 2021).

Molecular target: T1, TSPAN8 (UniProt P19075 1-237, limits assumed)
T1 sequence (looked up): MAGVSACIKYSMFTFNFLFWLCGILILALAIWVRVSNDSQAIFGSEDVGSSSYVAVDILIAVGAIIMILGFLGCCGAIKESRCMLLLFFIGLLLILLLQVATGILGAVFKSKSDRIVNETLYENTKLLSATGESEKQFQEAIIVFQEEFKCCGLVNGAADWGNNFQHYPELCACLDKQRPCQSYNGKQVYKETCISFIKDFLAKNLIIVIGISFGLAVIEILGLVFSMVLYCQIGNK
Assay: cell-based or functional assay

cytokine release after 24 h co-culture with AsPC1 cells (MACSPlex), against the TSPAN8 CD8a CAR T cells: 10 fold lower
B1: TSPAN8_hl_Sig4 CAR (other)
chain: EVKLLESGGGLVQPGGSMRLSCAASGFTFTDFYMNWIRQPAGKAPEWLGFIRNKASGYTTEYNPSVKGRFTISRDNTQNMLYLQMNTLRAEDTATYYCARAHSYYGYDYFDYWGQGVMVTVSSGGGGSGGGGSGGGGSDIQMTQSPASLSASLEEIVTITCQASQDIGNWLSWYQQKPGKSPQLLIYGATSLADGVPSRFSGSRSGTQYSLKISRLQVEDIRIYYCLQAYSAPWTFGGGTKLELKAASYPPVIVEMNSSVEAIEGSHVSLLCGADSNPPPLLTWMRDGTVLREAVAESLLLELEEVTPAEDGVYACLAENAYGQDNRTVGLSVMYAPWKPTVNGTMVAVEGETVSILCSTQSNPDPILTIFKEKQILSTVIYESELQLELPAVSPEDDGEYWCVAENQYGQRATAFNLSVEFAPVLLLESHCAAARDTVQCLCVVKSNPEPSVAFELPSRNVTVNESEREFVYSERSGLVLTSILTLRGQAQAPPRVICTARNLYGAKSLELPFQGAHRLMWAKIGPIYIWAPLAGTCGVLLLSLVITLYCKRGRKKLLYIFKQPFMRPVQTTQEEDGCSCRFPEEEEGGCELRVKFSRSADAPAYQQGQNQLYNELNLGRREEYDVLDKRRGRDPEMGGKPRRKNPQEGLYNELQKDKMAEAYSEIGMKGERRRGKGHDGLYQGLSTATKDTYDALHMQALPPR
